From patent US20260049138A1 (Chugai, published 2026)
Positions count from the first letter of the chain named. In names and notes the source's numbering stands.

B1: GLS3000 G89W one-arm antibody (antibody, human IgG1, kappa, L234A L235A, N297A, name in Kabat numbering)
heavy: QVQLVESGGGVVQPGRSLRLSCAASGFTFSNAWMHWVRQAPGKGLEWVAQIKAKSNNYATYYAESVKGRFTISRDDSKNSLYLQMNSLKTEDTAVYYCRYVHYGAYYGVDAWGQGTTVTVSSASTKGPSVFPLAPSSKSTSGGTAALGCLVKDYFPEPVTVSWNSGALTSGVHTFPAVLQSSGLYSLSSVVTVPSSSLGTQTYICNVNHKPSNTKVDKKVEPKSCDKTHTCPPCPAPEAAGGPSVFLFPPKPKDTLMISRTPEVTCVVVDVSHEDPEVKFNWYVDGVEVHNAKTKPREEQYASTYRVVSVLTVLHQDWLNGKEYKCKVSNKALPAPIEKTISKAKGQPREPQVYTLPPSRCELTKNQVSLSCAVKGFYPSDIAVEWESNGQPENNYKTTPPVLDSDGSFFLVSKLTVDKSRWQQGNVFSCSVMHEALHNHYTQKSLSLSPDYKDDDDK
chain: EPKSSDKTHTCPPCPAPELLGGPSVFLFPPKPKDTLMISRTPEVTCVVVDVSHEDPEVKFNWYVDGVEVHNAKTKPREEQYNSTYRVVSVLTVLHQDWLNGKEYKCKVSNKALPAPIEKTISKAKGQPREPQVCTLPPSRDELTKNQVSLWCLVKGFYPSDIAVEWESNGQPENNYKTTPPVLDSDGSFFLYSKLTVDKSRWQQGNVFSCSVMHEALHNRYTQKSLSLSP
light: DIVMTQSPLSLPVTPGEPASISCRSSQSLVHSNRNTYLHWYQQKPGQAPRLLIYKVSNRFSGVPDRFSGSGSGTDFTLKISRVEAEDVGVYYCWQGTQVPYTFGQGTKLEIKRTVAAPSVFIFPPSDEQLKSGTASVVCLLNNFYPREAKVQWKVDNALQSGNSQESVTEQDSKDSTYSLSSTLTLSKADYEKHKVYACEVTHQGLSSPVTKSFNRGEC
B2: GLS3000 H27dM one-arm antibody (antibody, human IgG1, kappa, L234A L235A, N297A, name in Kabat numbering)
heavy: B1 heavy
chain: B1 chain
light: B1 light with H31M, W94G
B3: GLS3000 H27dR one-arm antibody (antibody, human IgG1, kappa, L234A L235A, N297A, name in Kabat numbering)
heavy: B1 heavy
chain: B1 chain
light: B1 light with H31R, W94G
B4: GLS3000 H27dF one-arm antibody (antibody, human IgG1, kappa, L234A L235A, N297A, name in Kabat numbering)
heavy: B1 heavy
chain: B1 chain
light: B1 light with H31F, W94G
B5: GLS3000 H27dE one-arm antibody (antibody, human IgG1, kappa, L234A L235A, N297A, name in Kabat numbering)
heavy: B1 heavy
chain: B1 chain
light: B1 light with H31E, W94G
B6: GLS3000 G91A one-arm antibody (antibody, human IgG1, kappa, L234A L235A, N297A, name in Kabat numbering)
heavy: B1 heavy
chain: B1 chain
light: B1 light with W94G, G96A
B7: GLS3000 G89Y one-arm antibody (antibody, human IgG1, kappa, L234A L235A, N297A, name in Kabat numbering)
heavy: B1 heavy
chain: B1 chain
light: B1 light with W94Y
B8: GLS3000 H27dL one-arm antibody (antibody, human IgG1, kappa, L234A L235A, N297A, name in Kabat numbering)
heavy: B1 heavy
chain: B1 chain
light: B1 light with H31L, W94G
B9: GLS3000 H27dV one-arm antibody (antibody, human IgG1, kappa, L234A L235A, N297A, name in Kabat numbering)
heavy: B1 heavy
chain: B1 chain
light: B1 light with H31V, W94G
B10: GLS3000 G91S one-arm antibody (antibody, human IgG1, kappa, L234A L235A, N297A, name in Kabat numbering)
heavy: B1 heavy
chain: B1 chain
light: B1 light with W94G, G96S
B11: GLS3000 H27dP one-arm antibody (antibody, human IgG1, kappa, L234A L235A, N297A, name in Kabat numbering)
heavy: B1 heavy
chain: B1 chain
light: B1 light with H31P, W94G
B12: GLS3000 H27dY one-arm antibody (antibody, human IgG1, kappa, L234A L235A, N297A, name in Kabat numbering)
heavy: B1 heavy
chain: B1 chain
light: B1 light with H31Y, W94G
B13: GLS3000 G91E one-arm antibody (antibody, human IgG1, kappa, L234A L235A, N297A, name in Kabat numbering)
heavy: B1 heavy
chain: B1 chain
light: B1 light with W94G, G96E
B14: GLS3000 H27dW one-arm antibody (antibody, human IgG1, kappa, L234A L235A, N297A, name in Kabat numbering)
heavy: B1 heavy
chain: B1 chain
light: B1 light with H31W, W94G
B15: GLS3000 H34D one-arm antibody (antibody, human IgG1, kappa, L234A L235A, N297A, name in Kabat numbering)
heavy: B1 heavy
chain: B1 chain
light: B1 light with H39D, W94G
B16: GLS3000 G91D one-arm antibody (antibody, human IgG1, kappa, L234A L235A, N297A, name in Kabat numbering)
heavy: B1 heavy
chain: B1 chain
light: B1 light with W94G, G96D
B17: GLS3000 H34I one-arm antibody (antibody, human IgG1, kappa, L234A L235A, N297A, name in Kabat numbering)
heavy: B1 heavy
chain: B1 chain
light: B1 light with H39I, W94G
B18: GLS3000 H34G one-arm antibody (antibody, human IgG1, kappa, L234A L235A, N297A, name in Kabat numbering)
heavy: B1 heavy
chain: B1 chain
light: B1 light with H39G, W94G
B19: GLS3000 G91P one-arm antibody (antibody, human IgG1, kappa, L234A L235A, N297A, name in Kabat numbering)
heavy: B1 heavy
chain: B1 chain
light: B1 light with W94G, G96P
B20: GLS3000 H27dS one-arm antibody (antibody, human IgG1, kappa, L234A L235A, N297A, name in Kabat numbering)
heavy: B1 heavy
chain: B1 chain
light: B1 light with H31S, W94G
B21: GLS3000 H27dN one-arm antibody (antibody, human IgG1, kappa, L234A L235A, N297A, name in Kabat numbering)
heavy: B1 heavy
chain: B1 chain
light: B1 light with H31N, W94G
B22: GLS3000 H27dG one-arm antibody (antibody, human IgG1, kappa, L234A L235A, N297A, name in Kabat numbering)
heavy: B1 heavy
chain: B1 chain
light: B1 light with H31G, W94G
B23: GLS3000 H27dD one-arm antibody (antibody, human IgG1, kappa, L234A L235A, N297A, name in Kabat numbering)
heavy: B1 heavy
chain: B1 chain
light: B1 light with H31D, W94G
B24: GLS3000 H27dI one-arm antibody (antibody, human IgG1, kappa, L234A L235A, N297A, name in Kabat numbering)
heavy: B1 heavy
chain: B1 chain
light: B1 light with H31I, W94G
B25: GLS3000 H27dK one-arm antibody (antibody, human IgG1, kappa, L234A L235A, N297A, name in Kabat numbering)
heavy: B1 heavy
chain: B1 chain
light: B1 light with H31K, W94G
B26: GLS3000 G91Y one-arm antibody (antibody, human IgG1, kappa, L234A L235A, N297A, name in Kabat numbering)
heavy: B1 heavy
chain: B1 chain
light: B1 light with W94G, G96Y
B27: GLS3000 H34E one-arm antibody (antibody, human IgG1, kappa, L234A L235A, N297A, name in Kabat numbering)
heavy: B1 heavy
chain: B1 chain
light: B1 light with H39E, W94G
B28: GLS3000 H27dT one-arm antibody (antibody, human IgG1, kappa, L234A L235A, N297A, name in Kabat numbering)
heavy: B1 heavy
chain: B1 chain
light: B1 light with H31T, W94G
B29: GLS3000 G91T one-arm antibody (antibody, human IgG1, kappa, L234A L235A, N297A, name in Kabat numbering)
heavy: B1 heavy
chain: B1 chain
light: B1 light with W94G, G96T
B30: GLS3000 H34L one-arm antibody (antibody, human IgG1, kappa, L234A L235A, N297A, name in Kabat numbering)
heavy: B1 heavy
chain: B1 chain
light: B1 light with H39L, W94G
B31: GLS3000 H27dQ one-arm antibody (antibody, human IgG1, kappa, L234A L235A, N297A, name in Kabat numbering)
heavy: B1 heavy
chain: B1 chain
light: B1 light with H31Q, W94G
B32: GLS3000 H34A one-arm antibody (antibody, human IgG1, kappa, L234A L235A, N297A, name in Kabat numbering)
heavy: B1 heavy
chain: B1 chain
light: B1 light with H39A, W94G
B33: GLS3000 H34K one-arm antibody (antibody, human IgG1, kappa, L234A L235A, N297A, name in Kabat numbering)
heavy: B1 heavy
chain: B1 chain
light: B1 light with H39K, W94G
B34: GLS3000 H34F one-arm antibody (antibody, human IgG1, kappa, L234A L235A, N297A, name in Kabat numbering)
heavy: B1 heavy
chain: B1 chain
light: B1 light with H39F, W94G

biological target: T1, CD3ε homodimer protein (human, UniProt P07766 23-126, limits assumed); assay: SPR Biacore T200, CD3ε homodimer on chip;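 further: Light-chain single-residue variant antibodies injected over amine-coupled CD3ε homodimer on a CM4 chip at 25 °C, bound amount divided by that of the GLS3000-containing antibody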
T1 construct: also called CD3 (CD3ε)
T1 sequence (P07766 23-126 limits assumed): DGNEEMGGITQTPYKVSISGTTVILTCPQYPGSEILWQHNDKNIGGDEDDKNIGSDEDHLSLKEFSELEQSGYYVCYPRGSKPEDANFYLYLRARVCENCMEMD

| ratio of amount bound vs unaltered GLS3000 | Binder |
| --- | --- |
| 0.5 | B1 |
| 0.3 | B2 |
| 0.31 | B3 |
| 0.63 | B4 |
| 0.23 | B5 |
| 0.27 | B6 |
| 1.19 | B7 |
| 0.3 | B8 |
| 0.3 | B9 |
| 0.26 | B10 |
| 0.24 | B11 |
| 0.64 | B12 |
| 0.16 | B13 |
| 0.39 | B14 |
| 0.22 | B15 |
| 0.16 | B16 |
| 0.65 | B17 |

| ratio of amount bound vs unaltered GLS3000 | Binder |
| --- | --- |
| 1.02 | B18 |
| 0.27 | B19 |
| 0.32 | B20 |
| 0.3 | B21 |
| 0.3 | B22 |
| 0.22 | B23 |
| 0.26 | B24 |
| 0.29 | B25 |
| 0.17 | B26 |
| 0.23 | B27 |
| 0.29 | B28 |
| 0.26 | B29 |
| 0.59 | B30 |
| 0.25 | B31 |
| 1.06 | B32 |
| 2.17 | B33 |
| 0.27 | B34 |
